Source: US20040014191A1, “Nitroreductase enzymes” (priority 1999, published 2004)
Where two headings read alike, the source gives them in different places.

How the values were obtained:
[1] = tested on: Cc1cc2nc3c(=O)[nH]c(=O)nc-3n(C[C@H](O)[C@H](O)[C@H](O)COP(=O)(O)OP(=O)(O)OC[C@H]3O[C@@H](n4cnc5c(N)ncnc54)[C@H](O)[C@@H]3O)c2cc1C; assay: purified protein, by the assay type
Procedure: Quantitative assays using CB 1954 or SN 23862 as substrate were carried out at 37° C. by HPLC as previously described (2) (3). […] Incubation times varied according to the enzyme activity being studied.

[2] = Nitroreductase enzyme assay with CB 1954 as substrate (HPLC); assay type: biochemical; conditions: for CB1954 (product formed / activity): Table 2, recombinant B. subtilis enzymes, crude lysates
[3] = Nitroreductase enzyme assay with SN 23862 as substrate (HPLC); assay type: biochemical; conditions: for SN 23862 acitvity: Table 6; for SN23862 (activity): Table 2, recombinant B. subtilis enzymes, crude lysates; for SN 23862 acitvity, second number of the cell (kcat) / Km: Table 6, HPLC assay; for Km: read-out: SN 23862 acitvity, first number of the cell (Km)
[4] = assay type: biochemical; conditions: Table 6
[5] = assay type: biochemical; conditions: Table 6; remark: listed apart in the source
[6] = Quinone reductase assay with menadione, cytochrome c as terminal electron acceptor; assay type: biochemical; conditions: for Quinone reductase: Table 6
Procedure: (§1) Assays were carried out spectrophotometrically at 37° C. in 10 mM Tris pH 7.5 using cytochrome c as terminal electron acceptor.

[7] = tested on: recombinant enzymes (antigens); assay: Polyclonal antisera titres by ELISA; assay type: binding; conditions: rabbit antiserum; for Post-boost titre: 10 days after booster; for Pre-boost titre (50%): after 8 weeks
Procedure: Polyclonal antisera were raised against recombinant enzymes by immunising rabbits with […] of protein in 50% PBS:50% Freund's complete adjuvant, total volume 400 μl. Blood was collected by ear bleed after 6-8 weeks and again 10 days after a booster immunisation of protein, and titre assessed by ELISA. 96-well plates were coated with 1 μg ml^−1 of the proteins and blocked with 10% v/v foetal calf serum (FCS), antibodies were diluted in assay buffer (1% FCS) and applied in doubling dilutions across the plate from 1 in 100 to 1 in 51 200 or 1 in 150 to 1 in 76 800. A secondary antibody conjugated with HRP (dilution 1 in 10 000) was used to develop the assay with 3,3′,5,5′-tetramethylbenzidine (TMB) as substrate.
Antisera to E. coli B NfnB and six novel proteins (Haemophilus influenzae and Campylobacter jejuni NfnB homologues, YdgI and YodC of Bacillus subtilis, YwrO of B. amyloliquefaciens and Porphyromonas gingivalis YwrO homologue) have been raised in rabbits by inoculation with 100 μg of protein in PBS+ Freund's complete adjuvant. Titres were assessed by ELISA after 8 weeks, and 10 days after a booster inoculation of a further 100 μg of protein per rabbit. Pre-immune sera were also tested.
96 well plates were coated overnight at 4° C. with the antigens at 1 μg/ml. After washing and blocking antisera were added in doubling dilutions in an appropriate range across the plates. The plates were developed using goat anti-rabbit IgG peroxidase conjugate with TMB as substrate, and read at 450 nm.

[8] = Flavin reductase assay with FMN and FAD; assay type: biochemical; conditions: for Flavin reductase: Table 6
Procedure: as §1

[9] = other: cofactor NADH, 37° C., 10 mM Tris pH 7.5, pH 7.5
[10] = Table 6, 37° C., read-out: Km CB 1954

Molecule: YodC (Bacillus subtilis subsp. subtilis str. 168)
- Km [1, 9]: 0.6 ± 0.1 µM
- kcat [1, 9]: 269 ± 4.9 s⁻¹
- kcat/Km [1, 9]: 4.48e+08 M⁻¹ s⁻¹
- Km ([1]; other: cofactor NADPH, 37.0 °C): 2.4 ± 0.3 µM
- kcat ([1]; other: cofactor NADPH, 37.0 °C): 283 ± 7.4 s⁻¹
- kcat/Km ([1]; other: cofactor NADPH, 37.0 °C): 1.18e+08 M⁻¹ s⁻¹

B1: Rat DTD: rat DT-diaphorase enzyme (protein, UniProt P05982 2-274, looked up)
NAD(P)H dehydrogenase …: AVRRALIVLAHAERTSFNYAMKEAAVEALKKKGWEVVESDLYAMNFNPLISRNDITGEPKDSENFQYPVESSLAYKEGRLSPDIVAEQKKLEAADLVIFQFPLYWFGVPAILKGWFERVLVAGFAYTYATMYDKGPFQNKKTLLSITTGGSGSMYSLQGVHGDMNVILWPIQSGILRFCGFQVLEPQLVYSIGHTPPDARVQVLEGWKKRLETVWEESPLYFAPSSLFDLNFQAGFLLKKEVQEEQKKNKFGLSVGHHLGKSIPADNQIKARK
- CB1954 kcat ([2]; Table 1): 0.07 s⁻¹
- CB 1954 product ([2]; Table 1, purified enzymes): 4HX
- SN23862 Km ([3]; Table 1): inactive
- SN23862 kcat ([3]; Table 1): inactive

B2: H. pylori: nitroreductase from Helicobacter pylori, SEQ ID NO: 29 (protein, listed as Helicobacter pylori)
chain: MKFLDQEKRRQLLNERHSCKMFDSHYEFSSEELEEIAEIARLSPSSYNTQPWHFVMVTNKDLKKQIAAHSYFNEEMIKSASALMVVCSLKPSELLPTGHYMQNLYPESYKVRVIPSFAQMLGVRFNHSMQKLESYILEQCYIAVGQICMGVSLMGLDSCIIGGFDPLKVGEVLEERINKPKIACLIALGKRVAEASQKSRKSKVDAITWL
- CB 1954 product ([2]; Table 6, recombinant enzymes): 4 > 2HX
- reduction of CB1954: activity and product formed ([2]; listed as H. pylori NfnB homologue): form the 4HX reduction product of CB1954
- reduction of CB1954: activity and product formed ([2]; listed as Helicobacter pylori enzyme): mixture of the 2 and 4HX
- Cofactor [4]: NADPH
- Azo-Reductase [5]: No
- activity with SN23862 [3]: weak activity with SN23862
- SN 23862 acitvity [3]: Weak

B3: YdeQ: nitroreductase from B. subtilis, SEQ ID NO: 8 (protein, listed as Bacillus subtilis)
chain: MDHMKTLVLVVHPNIESSRINKKWKEAVLSEPDVTVHDLYEKYRDQPIDVEFEQQQLLAHDRIVFQFPLYWYSSPPLLKQWFDEVFTFGWAHGPGGNKLKGKEWVTAMSIGSPEHSYQAGGYNLFSISELTKPFQASAHLVGMTYLPSFAEYRANTISDQEIAESANRYVKHITNIELNPKVRLQRYLKQLESVDLT
- reduction of CB1954: activity and product formed [2]: no activity with prodrugs
- CB1954 (product formed / activity) [2]: inactive
- activity with SN23862 [3]: no activity with prodrugs
- SN23862 (activity) [3]: inactive

B4: YodC: nitroreductase from B. subtilis, SEQ ID NO: 12 (coded for by SEQ ID NO: 11) (protein, listed as Bacillus subtilis)
chain: MTNTLDVLKARASVKEYDTNAPISKEELTELLDLATKAPSAWNLQHWHFTVFHSDESKAELLPVAYNQKQIVESSAVVAILGDLKANENGEEVYAELASQGYITDEIKQTLLGQINGAYQSEQFARDSAFLNASLAAMQLMIAAKAKGYDTCAIGGFNKEQFQKQFDISERYVPVMLISIGKAVKPAHQSNRLPLSKVSTWL
- activity with menadione / quinone reductase [6]: high affinity for menadione and flavins
- Quinone reductase [6]: Yes
- kcat (CB 1954) [2]: 58.0 s⁻¹
- kcat for CB1954 (text) [2]: 58 s⁻¹
- reduction of CB1954: activity and product formed [2]: both the 2HX and 4HX derivatives
- CB1954 (product formed / activity) [2]: 2/4HX
- Km [2, 10]: 552 µM
- CB 1954 product ([2]; Table 6, recombinant enzymes): 4HX
- kcat for CB1954 (text) ([2]; listed as SEQ ID NO: 11): about 15
- Cofactor [4]: NADPH
- Azo-Reductase [5]: Yes
- Post-boost titre [7]: 7500
- Pre-boost titre (50%) [7]: 3700
- activity with SN23862 [3]: active against both CB1954 and SN23862
- SN23862 (activity) [3]: active
- SN 23862 acitvity, second number of the cell (kcat) [3]: 53.1
- Km [3]: 957 µM
- flavin reductase activity [8]: high affinity for menadione and flavins
- Flavin reductase [8]: Yes

B5: Synechocystis: nitroreductase from Synechocystis sp PCC 6803, SEQ ID NO: 19 (protein)
chain: MDTFDAIYQRRSVKHFDPDHRLTAEEERKLHEAAIQAPTSFNIQLWRFLIIRDPQLRQTIREKYGNQAQMTDASLLILVAADVNAWDKDPARYWRNAPREVANYLVGAIAFYGGKPQLQRDEAQRSIGMAMQNLMLAAKAMGYDSCPMIGFDLQKVAELVKLPADYAIGPMVAIGKRTEDARAKGGQTPLEELVWENSFA
modifications: Synechocystis PCC6803
- reduction of CB1954: activity and product formed [2]: only the relatively non-toxic 2HX derivative
- CB 1954 product ([2]; Table 6, recombinant enzymes): 2HX
- Cofactor [4]: NADPH
- Azo-Reductase [5]: No
- activity with SN23862 [3]: show activity with SN23862
- SN 23862 acitvity [3]: Weak

B6: C. jejuni NfnB: nitroreductase from Campylobacter jejuni, SEQ ID NO: 23 (protein, listed as Campylobacter jejuni)
chain: MKKELEIFSTRYSCRNFKNEKLKKEDLNSILEIARLSPSSLGLEPWKFIVVQDEKRKEELSKICNQQKHVKDCAALIIIISRLDFLDYFEEKLRKRDMSETEMQKRLDTYMPFLKSLNQEQKISYAREQAHIALASILYSANALNIASCTIGGFDKEKLDSYLSLDIQKERSSLVVALGYCNDKKNPQKNRFSFDEVVKFI
- activity with menadione / quinone reductase [6]: can use the quinone menadione as substrate
- Quinone reductase [6]: Yes
- kcat (CB 1954) [2]: 6.1 s⁻¹
- kcat for CB1954 (text) [2]: 11.2 s⁻¹
- reduction of CB1954: activity and product formed [2]: only the 4HX reduction product
- Km [2, 10]: 217 µM
- CB 1954 product ([2]; Table 6, recombinant enzymes): 4HX
- Km ([2]; read-out: Km for CB1954): 143 µM
- Cofactor [4]: NADPH
- Azo-Reductase [5]: Yes
- Post-boost titre [7]: 2500
- Pre-boost titre (50%) [7]: 1100
- activity with SN23862 [3]: active with SN23862
- SN 23862 acitvity, second number of the cell (kcat) [3]: 6.4
- Km [3]: 224 µM
- Flavin reductase [8]: Yes
- flavin reductase activity ([8]; listed as C. jejuni NfnB homologue): can use the quinone menadione as substrate as well as azodyes and the flavins FMN and FAD
- flavin reductase activity ([8]; listed as C. jejuni protein): high affinity for both FAD and FMN

B7: YrkL: nitroreductase from B. subtilis, SEQ ID NO: 6 (protein, listed as Bacillus subtilis)
chain: MKTLVIVIHPNLETSVVNKTWMNRLKQEKDITVHDLYGEYPNFIIDVEKEQQLLLDHERIVFQFPMYWYSSPALLKQWEDDVLTHGWAYGTGGTKLHGKELLLAISSGAQESDYQAGGEYNITISELIRPFQVTANYIGMRFLPAFTQYGTLHLSKEDVKNSAERLVDYLKAEH
- reduction of CB1954: activity and product formed [2]: no activity
- CB1954 (product formed / activity) [2]: inactive
- activity with SN23862 [3]: no activity
- SN23862 (activity) [3]: inactive

B8: E. coli BNfnB (protein)
chain: MDIISVALKRHSTKAFDASKKLTPEQAEQIKTLLQYSPSSTNSQPWHFIVASTEEGKARVAKSAAGNYVFNERKMLDASHVVVFCAKTAMDDVWLKLVVDQEDADGRFATPEAKAANDKGRKFFADMHRKDLHDDAEWMAKQVYLNVGNFLLGVAALGLDAVPIEGFDAAILDAEFGLKEKGYTSLVVVPVGHHSVEDFNATLPKSRLPQNITLTEV
- Post-boost titre [7]: 11000
- Pre-boost titre (50%) [7]: 1300

B9: Bs YwrO: nitroreductase from B. subtilis, SEQ ID NO: 4 (protein, listed as Bacillus subtilis)
chain: MKILVLAVHPHMETSVVNKAWAEELSKHDNITVRDLYKEYPDEAIDVAKEQQLCEEYDRIVFQFPLYWYSSPPLLKKWQDLVLTYGWAFGSEGNALHGKELMLAVSTGSEAEKYQAGGANHYSISELLKPFQATSNLIGMKYLPPYVFYGVNYAAAEDISHSAKRLAEYIQQPFV
- reduction of CB1954: activity and product formed [2]: inactive with either CB 1954 or SN 23862
- CB1954 (product formed / activity) [2]: 4HX
- reduction of CB1954: activity and product formed ([2]; listed as B. subtilis YwrO): converts CB1954 to the 4HX derivative alone
- activity with SN23862 [3]: inactive with either CB 1954 or SN 23862
- SN23862 (activity) [3]: inactive
- activity with SN23862 ([3]; listed as B. subtilis YwrO): inactive against SN23862
